Experimental findings from US20240252614A1 (Pfizer, published 2024) are described below.

One experiment deals with T1, PIV1014 (PIV1).
T1 construct: Q92C-G134C
Nature of the experiment: BLI, no stress. For orientation: Biolayer interferometry detects binding as a change in optical thickness at a sensor tip.

In another experiment the target is T2, PIV1023 (PIV1).
T2 construct: A466L
Nature of the experiment: BLI, no stress.

A further experiment deals with T3, PIV1024 (PIV1).
T3 construct: A466V
Nature of the experiment: BLI, no stress.

In the next experiment the target is T4, PIV1026 (PIV1).
T4 construct: S473V
Nature of the experiment: BLI, no stress.

The target of another experiment is T5, PIV1027 (PIV1).
T5 construct: S473L
As to the kind of experiment: BLI, no stress.

The target of the next experiment is T6, PIV1028 (PIV1).
T6 construct: A480L
Nature of the experiment: BLI, no stress.

The next experiment has as its target T7, PIV1030 (PIV1).
T7 construct: A466L, S473A
Nature of the experiment: BLI, no stress.

A further experiment addresses T8, PIV1031 (PIV1).
T8 construct: A466L, S473L
Nature of the experiment: BLI, no stress.

A further experiment has as its target T9, PIV1033 (PIV1).
T9 construct: T198A
Nature of the experiment: BLI, no stress.

A further experiment addresses T10, PIV1036 (PIV1).
T10 construct: G134A
As to the kind of experiment: BLI, no stress.

For the next experiment, the target named is T11, PIV1039 (PIV1).
T11 construct: A128P
As to the kind of experiment: BLI, no stress.

In experiment [1] the target is T12, hMPV047 (hMPV A, UniProt Q6WB98 19-102).
T12 construct: L141C-A159C
Nature of the experiment: BLI, no stress.
Experimental: (§1) The OCTET HTX (Sartorius, Gottingen, Germany) instrument was used to evaluate the expression and conformational integrity for each mutant. All measurements were conducted at 30° C. temperature in 96-well black plates (Corning, Corning, NY) with a final volume of 240 μL per well at a constant agitation rate of 1000 RPM.
(§2) Conformation integrity of hMPV A F protein mutants were evaluated by thermal stress experiments. Crude cell culture supernatants were normalized based on the results of the titer quantitation and then incubated for 1 hour at room temperature and two higher temperatures. […] Anti-Human IgG Fc Capture (AHC) biosensors were first equilibrated in PB before being dipped into more PB to establish the initial baseline. […] The mAb-bound biosensors were then dipped into the thermal stressed cell culture supernatants for 5 minutes. The kinetics analysis was done by OCTET data analysis software (version 12.0, Sartorius) based on curve fitting of the entire associate step.

In a further experiment the target is T13, hMPV048 (hMPV A, UniProt Q6WB98 19-102).
T13 construct: L141C-A161C
Nature of the experiment: BLI, no stress.

Experiment [2] deals with T14, hMPV049 (hMPV A, UniProt Q6WB98 19-102).
T14 construct: E146C-T160C
As to the kind of experiment: BLI, no stress.
Experimental: as §1, §2

A further experiment addresses T15, hMPV052 (hMPV A, UniProt Q6WB98 19-102).
T15 construct: L66P
Nature of the experiment: BLI, no stress.

For the next experiment, the target named is T16, hMPV053 (hMPV A, UniProt Q6WB98 19-102).
T16 construct: L110P
Nature of the experiment: BLI, no stress.

For another experiment, the target named is T17, hMPV054 (hMPV A, UniProt Q6WB98 19-102).
T17 construct: S132P
Nature of the experiment: BLI, no stress.

A further experiment has as its target T18, hMPV055 (hMPV A, UniProt Q6WB98 19-102).
T18 construct: N145P
Nature of the experiment: BLI, no stress.

Another experiment addresses T19, hMPV058 (hMPV A, UniProt Q6WB98 19-102).
T19 construct: L187P
Nature of the experiment: BLI, no stress.

In experiment [3] the target is T20, hMPV061 (hMPV A, UniProt Q6WB98 19-102).
T20 construct: G106A
As to the kind of experiment: BLI, no stress.
Experimental: as §1, §2

The target of the next experiment is T21, hMPV062 (hMPV A, UniProt Q6WB98 19-102).
T21 construct: G121A
As to the kind of experiment: BLI, no stress.

Another experiment addresses T22, hMPV066 (hMPV A, UniProt Q6WB98 19-102).
T22 construct: T49I
Nature of the experiment: BLI, no stress.

In a further experiment the target is T23, hMPV067 (hMPV A, UniProt Q6WB98 19-102).
T23 construct: S149T
Nature of the experiment: BLI, no stress.

Another experiment deals with T24, hMPV068 (hMPV A, UniProt Q6WB98 19-102).
T24 construct: A159V
Nature of the experiment: BLI, no stress.

A further experiment has as its target T25, hMPV069 (hMPV A, UniProt Q6WB98 19-102).
T25 construct: S291I
As to the kind of experiment: BLI, no stress.

In experiment [4] the target is T26, hMPV071 (hMPV A, UniProt Q6WB98 19-102).
T26 construct: T365I
Nature of the experiment: BLI, no stress.
Experimental: as §1, §2

In another experiment the target is T27, hMPV075 (hMPV A, UniProt Q6WB98 19-102).
T27 construct: L473F
Nature of the experiment: BLI, no stress.

For another experiment, the target named is hMPV A F WT Control (hMPV A, UniProt Q6WB98 19-102). Nature of the experiment: BLI, no stress.
For another experiment, the target named is T28, hMPV043 (hMPV A, UniProt Q6WB98 19-102).
T28 construct: G366C-D454C
Nature of the experiment: BLI, no stress.

The target in a further experiment is T29, hMPV044 (hMPV A, UniProt Q6WB98 19-102).
T29 construct: T411C-Q434C
As to the kind of experiment: BLI, no stress.

The target in experiment [5] is T30, hMPV045 (hMPV A, UniProt Q6WB98 19-102).
T30 construct: I137C-A159C
As to the kind of experiment: BLI, no stress.
Experimental: as §1, §2

Experiment [6] addresses T12, hMPV047. Nature of the experiment: BLI, 50C stress.
Experimental: as §1, §2
In experiment [7] the target is T14, hMPV049. Nature of the experiment: BLI, 50C stress.
Experimental: as §1, §2
A further experiment concerns the target T31, hMPV050 (hMPV A, UniProt Q6WB98 19-102).
T31 construct: V148C-L158C
As to the kind of experiment: BLI, 50C stress.

The target in a further experiment is T32, hMPV060 (hMPV A, UniProt Q6WB98 19-102).
T32 construct: A459P
As to the kind of experiment: BLI, 50C stress.

Experiment [8] addresses T20, hMPV061. As to the kind of experiment: BLI, 50C stress.
Experimental: as §1, §2
The target in another experiment is T33, hMPV063 (hMPV A, UniProt Q6WB98 19-102).
T33 construct: G239A
As to the kind of experiment: BLI, 50C stress.

Experiment [9] deals with T26, hMPV071. Nature of the experiment: BLI, 50C stress.
Experimental: as §1, §2
In the next experiment the target is T34, hMPV077 (hMPV A, UniProt Q6WB98 19-102).
T34 construct: Q476C, S477C
As to the kind of experiment: BLI, 50C stress.

Experiment [10] deals with T30, hMPV045. Nature of the experiment: BLI, 50C stress.
Experimental: as §1, §2

Experimental for PIV1014: (§3) All measurements were conducted at 30° C. temperature in 96-well black plates (Corning, Corning, NY) with a final volume of 240 μL per well at a constant agitation rate of 1000 RPM.
(§4) Conformation integrity of PIV1 F protein mutants were evaluated by a thermal stress experiment. Crude cell culture supernatants were normalized based on the results of the titer quantitation and then incubated for 1 hour at room temperature and two higher temperatures. For the initial testing of PIV1 mutants, the two temperatures were 50° C. and 53° C. […] Anti-Human IgG Fc Capture (AHC) biosensors were first equilibrated in PB for before being dipped into more PB to establish the initial baseline. […] The mAb-bound biosensors were then dipped into the thermal stresses cell culture supernatants for 5 minutes.
Experimental for PIV1023: as §3, §4
Experimental for PIV1024: as §3, §4
Experimental for PIV1026: as §3, §4
Experimental for PIV1027: as §3, §4
Experimental for PIV1028: as §3, §4
Experimental for PIV1030: as §3, §4
Experimental for PIV1031: as §3, §4
Experimental for PIV1033: as §3, §4
Experimental for PIV1036: as §3, §4
Experimental for PIV1039: as §3, §4
Experimental for hMPV A F WT Control: as §1, §2
Experimental for hMPV043: as §1, §2
Experimental for hMPV044: as §1, §2
Experimental for hMPV048: as §1, §2
Experimental for hMPV050: as §1, §2
Experimental for hMPV052: as §1, §2
Experimental for hMPV053: as §1, §2
Experimental for hMPV054: as §1, §2
Experimental for hMPV055: as §1, §2
Experimental for hMPV058: as §1, §2
Experimental for hMPV060: as §1, §2
Experimental for hMPV062: as §1, §2
Experimental for hMPV063: as §1, §2
Experimental for hMPV066: as §1, §2
Experimental for hMPV067: as §1, §2
Experimental for hMPV068: as §1, §2
Experimental for hMPV069: as §1, §2
Experimental for hMPV075: as §1, §2
Experimental for hMPV077: as §1, §2

B1: PIV1-8 mAb (antibody, V domains shown)
VH: QVQLVQSGAEVKKPGSSVKVSCEASGGTFSNYVISWVRQAPGQGLEWMGGIIPVFATAKYAQKFQGRVTIIADQSTNTAYLELSSLRSDDTAVYFCASVDSGGTWWDAFAIWGQGTMVTVSS
VL: QAVVTQPRSVSGSPGQAVTISCTGTSSDVGGYNYVSWYQHHPGKAPKLIIYDVTKRPSGVPDRFSGSKSGNTASLTISGLQTEYEADYYCCSYAGSYTLVFGGGTKLTVLG
notes: human IgG1; also called hPIV1-8 mAb; hPIV1-8
Consider B1, for which the “Response Shift” value with PIV1014 is 0.857 nm; in the experiment with PIV1023, 0.831 nm; in the experiment with PIV1024, 0.745 nm; in the experiment with PIV1026 it was 0.606 nm; in the experiment with PIV1027 it was 0.748 nm; with PIV1028, 0.579 nm. The “Response Shift” value in the experiment with PIV1030 is 0.753 nm; in the experiment with PIV1031 it was 0.766 nm; in the experiment with PIV1033 it was -0.056 nm; with PIV1036, 0.753 nm; in the experiment with PIV1039 it was -0.068 nm.

B2: hMPV-2 mAb (antibody, V domains shown)
VH: QVQLQQSGAEVKKPGASVKVSCKASGYTFTSYGISWVRQAPGQGLEWMGWISGYNGNTNYAQTFQGTFTMTTDTSTSTAYMELRRLRSGDTAVYYCARDRYYASGSYNGMDVWGQGTTVTVSS
VL: QSALTQPPSASGAPGQRVTVSCSGSSSNVGSSSVYWYQQLPGTAPKLLIYRNNQRPSGVPDRFSGSKSGTSASLAISGLRSEDEADYYCAAWDDSLSGWVFGGGTKLTVLG
notes: human IgG1
As to B2, the “Response Shift” value in the experiment with hMPV047 [1] was 0.268 nm; with hMPV048, 0.585 nm; with hMPV049 [2], 0.7 nm; with hMPV052 it was 0.739 nm; in the experiment with hMPV053, 0.717 nm; with hMPV054, 0.682 nm. Besides, the “Response Shift” value with hMPV055 was found to be 0.627 nm; with hMPV058 it was 0.709 nm; with hMPV061 [3], 0.73 nm; in the experiment with hMPV062, 0.774 nm; in the experiment with hMPV066, 0.767 nm; with hMPV067, 0.677 nm. In addition, the “Response Shift” value in the experiment with hMPV068 stood at 0.783 nm; with hMPV069, 0.747 nm; with hMPV071 [4] it was 0.76 nm; in the experiment with hMPV075 it was 0.802 nm; in the experiment with hMPV A F WT Control, 0.782 nm; with hMPV043, 0.636 nm. Moreover, the “Response Shift” value with hMPV044 was 0.797 nm; with hMPV045 [5], 0.582 nm; with hMPV047 [6], -0.039 nm; in the experiment with hMPV049 [7], 0.549 nm; in the experiment with hMPV050, 0.142 nm; with hMPV060 it was 0.707 nm. The “Response Shift” value in the experiment with hMPV061 [8] is 0.561 nm; in the experiment with hMPV063 it was 0.685 nm; in the experiment with hMPV071 [9] it was 0.694 nm; in the experiment with hMPV077, 0.635 nm; in the experiment with hMPV045 [10], 0.124 nm.
